# Laboratory results: patent publication US20120178701A1 (PALATIN TECHNOLOGIES, published 2012)
# Bridge positions count the residues as written; N and C are the ends. Square brackets hold non-standard residues; d marks the D form. Aad = N[C@@H](CCCC(=O)O)C(=O)O; Orn = NCCC[C@H](N)C(=O)O; Dab = NCC[C@H](N)C(=O)O
# B1: Ac-Arg-cyclo(Asp-Gln-D-Phe-Arg-Trp-Lys)-NH2 (peptide)
# peptide: Ac-RDQ[dF]RWK-NH2
# modifications: lactam 2-7
# notes: any difference is only in the drawings; also called peptide No. 32
# B2: Ac-Arg-cyclo(Dab-Gln-D-Phe-Arg-Trp-hGlu)-NH2 (peptide)
# peptide: RXQFRWX
# modifications: N-acetyl; X2 = Dab; D-Phe 4; X7 = hGlu; side-chain lactam Dab2-hGlu7; C-terminal amide
# notes: also called peptide No. 159
# B3: Ac-Arg-cyclo(Lys-Asn-D-Phe-Arg-Nal 2-Asp)-NH2 (peptide)
# peptide: RKNFRXD
# HELM: PEPTIDE1{[ac].R.K.N.[dF].R.[O=C([C@H](Cc1ccc2ccccc2c1)N[*:1])[*:2]].D.[am]}$PEPTIDE1,PEPTIDE1,3:R3-8:R3$$$V2.0
# SMILES: CC(=O)N[C@@H](CCCNC(=N)N)C(=O)N[C@H]1CCCCNC(=O)C[C@@H](C(N)=O)NC(=O)[C@H](Cc2ccc3ccccc3c2)NC(=O)[C@H](CCCNC(=N)N)NC(=O)[C@@H](Cc2ccccc2)NC(=O)[C@H](CC(N)=O)NC1=O
# notes: also called peptide No. 162
# Molecular target: T1, human recombinant melanocortin-4 receptor (human, UniProt P32245 1-332)
# Assay: cell-based or functional assay
# T1 sequence (P32245 whole entry): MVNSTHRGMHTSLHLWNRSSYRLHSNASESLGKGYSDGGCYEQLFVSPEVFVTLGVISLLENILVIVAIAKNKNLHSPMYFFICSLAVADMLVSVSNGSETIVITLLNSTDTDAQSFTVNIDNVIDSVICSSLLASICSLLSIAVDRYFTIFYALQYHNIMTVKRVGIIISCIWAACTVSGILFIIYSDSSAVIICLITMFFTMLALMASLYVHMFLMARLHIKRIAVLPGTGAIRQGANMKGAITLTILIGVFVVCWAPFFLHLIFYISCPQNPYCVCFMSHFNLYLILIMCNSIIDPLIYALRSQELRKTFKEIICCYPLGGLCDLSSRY
intrinsic activity (cAMP; NDP-α-MSH = 100%) [%],EC50 (cAMP) [nM],Binder
91,,"Ac-RDH[dF]RWK-NH2 (lactam 2-7, also called peptide No. 1) [Ac-Arg-cyclo(Asp-His-D-Phe-Arg-Trp-Lys)-NH2]"
98,17,B1
95,,Ac-R[Dab]H[dF]RW[Aad]-NH2 (lactam 2-7) [Ac-Arg-cyclo(Dab-His-D-Phe-Arg-Trp-hGlu)-NH2]
42,,"Ac-RDV[dF]RWK-NH2 (lactam 2-7, also called peptide No. 16) [Ac-Arg-cyclo(Asp-Val-D-Phe-Arg-Trp-Lys)-NH2]"

# Molecular target: T1, human recombinant melanocortin-4 …
# Assay: cell-based or functional assay
# Remark: another data set of the same source
hMC4-R EC50 [nM],hMC4-R Emax (%),Binder
0.825,99,B2
0.245,98,"Ac-R[Aad]N[dF]RW[Dab]-NH2 (lactam 2-7, also called peptide No. 160) [Ac-Arg-cyclo(hGlu-Asn-D-Phe-Arg-Trp-Dab)-NH2]"
0.85,82,B3
0.189,97,Ac-RKN[dF]RWD-NH2 (lactam 2-7) [Ac-Arg-cyclo(Lys-Asn-D-Phe-Arg-Trp-Asp)-NH2]
0.413,91,"Ac-REN[dF]RW[Orn]-NH2 (lactam 2-7, also called peptide No. 161) [Ac-Arg-cyclo(Glu-Asn-D-Phe-Arg-Trp-Orn)-NH2]"
2,89,"Ac-[dR]DQ[dF]RWK-NH2 (lactam 2-7, also called peptide No. 71) [Ac-D-Arg-cyclo(Asp-Gln-D-Phe-Arg-Trp-Lys)-NH2]"

# Molecular target: T2, human recombinant melanocortin-1 receptor (human, UniProt Q01726 1-317)
# Assay: cell-based or functional assay
# T2 sequence (Q01726 whole entry): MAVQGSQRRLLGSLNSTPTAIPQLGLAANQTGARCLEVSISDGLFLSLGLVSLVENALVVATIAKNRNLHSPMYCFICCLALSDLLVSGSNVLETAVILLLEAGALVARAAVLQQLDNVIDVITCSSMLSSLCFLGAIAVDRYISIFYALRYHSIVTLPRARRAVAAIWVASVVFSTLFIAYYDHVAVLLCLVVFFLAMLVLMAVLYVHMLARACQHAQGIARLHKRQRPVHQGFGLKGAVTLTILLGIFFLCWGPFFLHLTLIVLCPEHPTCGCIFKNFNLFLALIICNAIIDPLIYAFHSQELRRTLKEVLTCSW
hMC1-R EC50 [nM],hMC1-R Emax (%),Binder
26,98,B2
25,,"Ac-R[Orn]N[dF]RWE-NH2 (lactam 2-7, also called peptide No. 154) [Ac-Arg-cyclo(Orn-Asn-D-Phe-Arg-Trp-Glu)-NH2]"
80,81,"Ac-[dR][Orn]N[dF]RWE-NH2 (lactam 2-7, also called peptide No. 156) [Ac-D-Arg-cyclo(Orn-Asn-D-Phe-Arg-Trp-Glu)-NH2]"
22,89,B3
14,91,Ac-RKN[dF]RWD-NH2 (lactam 2-7) [Ac-Arg-cyclo(Lys-Asn-D-Phe-Arg-Trp-Asp)-NH2]
13,85,"Ac-REN[dF]RW[Orn]-NH2 (lactam 2-7, also called peptide No. 161) [Ac-Arg-cyclo(Glu-Asn-D-Phe-Arg-Trp-Orn)-NH2]"
,88,"Ac-[dR]DQ[dF]RWK-NH2 (lactam 2-7, also called peptide No. 71) [Ac-D-Arg-cyclo(Asp-Gln-D-Phe-Arg-Trp-Lys)-NH2]"

# Molecular target: T3, endogenous MC1-R of B-16 mouse melanoma cells (mouse, UniProt Q01727 1-315)
# T3 construct: whole, on cells; membrane homogenates; also called mouse B16 MC1-R
# Assay: competitive binding vs [I125]-NDP-α-MSH
# Protocol: (§1) After incubation for 60 minutes at 37° C., the assay mixture was filtered and the membranes washed three times with ice-cold buffer. Filters were dried and counted in a gamma counter for bound radioactivity. […] Maximal specific binding (100%) was defined as the difference in radioactivity (cpm) bound to cell membranes in the absence and presence of 1 μM NDP-α-MSH. […] Each assay was conducted in triplicate and the actual mean values are described, with results less than 0% reported as 0%. Ki values for test peptides of the present invention were determined using Graph-Pad Prism® curve-fitting software.
# T3 sequence (Q01727 whole entry): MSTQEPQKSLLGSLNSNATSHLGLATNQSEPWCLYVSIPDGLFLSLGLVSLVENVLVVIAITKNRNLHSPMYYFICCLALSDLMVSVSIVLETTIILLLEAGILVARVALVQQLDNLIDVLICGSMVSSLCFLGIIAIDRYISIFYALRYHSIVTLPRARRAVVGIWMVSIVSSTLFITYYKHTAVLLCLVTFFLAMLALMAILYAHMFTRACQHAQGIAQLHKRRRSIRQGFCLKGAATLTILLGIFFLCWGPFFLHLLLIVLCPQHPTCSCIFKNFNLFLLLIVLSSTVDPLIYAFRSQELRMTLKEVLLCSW
row,Ki [nM],Binder
1,3,"Ac-RDH[dF]RWK-NH2 (lactam 2-7, also called peptide No. 1) [Ac-Arg-cyclo(Asp-His-D-Phe-Arg-Trp-Lys)-NH2]"
2,133,B1

# Molecular target: T4, human recombinant melanocortin-3 receptor (human, UniProt P41968 1-323)
# T4 construct: whole, on cells; Membrane homogenates of HEK-293 cells expressing the receptor; also called hMC3-R; MC3-R
# Assay: competitive binding vs [I125]-NDP-α-MSH
# Protocol: as §1
# T4 sequence (P41968 whole entry): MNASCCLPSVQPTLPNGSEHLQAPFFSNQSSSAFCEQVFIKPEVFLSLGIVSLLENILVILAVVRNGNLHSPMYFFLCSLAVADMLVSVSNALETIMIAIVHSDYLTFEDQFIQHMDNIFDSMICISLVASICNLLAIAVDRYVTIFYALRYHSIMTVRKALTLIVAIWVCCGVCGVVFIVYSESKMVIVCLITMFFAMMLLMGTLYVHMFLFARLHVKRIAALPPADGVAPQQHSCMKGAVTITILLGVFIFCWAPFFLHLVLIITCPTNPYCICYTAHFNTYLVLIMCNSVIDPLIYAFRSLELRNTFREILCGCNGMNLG
row,Ki [nM],Binder
1,340,B1

# Molecular target: T1, human recombinant melanocortin-4 …
# Assay: ratio of Ki values, hMC1-R as reference
row,"binding selectivity, MC4-R against MC1-R [fold]",Binder
1,≥ 20,B2
2,≥ 20,B3
3,≥ 20,Ac-RKN[dF]RWD-NH2 (lactam 2-7) [Ac-Arg-cyclo(Lys-Asn-D-Phe-Arg-Trp-Asp)-NH2]
4,≥ 20,"Ac-REN[dF]RW[Orn]-NH2 (lactam 2-7, also called peptide No. 161) [Ac-Arg-cyclo(Glu-Asn-D-Phe-Arg-Trp-Orn)-NH2]"

# Molecular target: T3, endogenous MC1-R of B-16 mouse melanoma …
# Assay: competitive binding vs Eu-labeled NDP-α-MSH
row,Ki [nM],Binder
1,4,"Ac-RDH[dF]RWK-NH2 (lactam 2-7, also called peptide No. 1) [Ac-Arg-cyclo(Asp-His-D-Phe-Arg-Trp-Lys)-NH2]"
2,673,B1
3,323,"Ac-RDV[dF]RWK-NH2 (lactam 2-7, also called peptide No. 16) [Ac-Arg-cyclo(Asp-Val-D-Phe-Arg-Trp-Lys)-NH2]"

# Molecular target: T4, human recombinant melanocortin-3 …
# Assay: competitive binding vs Eu-labeled NDP-α-MSH
row,Ki [nM],Binder
1,103,"Ac-RDH[dF]RWK-NH2 (lactam 2-7, also called peptide No. 1) [Ac-Arg-cyclo(Asp-His-D-Phe-Arg-Trp-Lys)-NH2]"
2,1060,"Ac-RDV[dF]RWK-NH2 (lactam 2-7, also called peptide No. 16) [Ac-Arg-cyclo(Asp-Val-D-Phe-Arg-Trp-Lys)-NH2]"

# Molecular target: T2, human recombinant melanocortin-1 …
# Assay: competitive inhibition of labelled NDP-α-MSH, hMC1-R membranes
# Protocol: (§2) A competitive inhibition binding assay is performed using membrane homogenates prepared from HEK-293 cells that express recombinant hMC4-R, hMC3-R, or hMC5-R, and from B-16 mouse melanoma cells (containing endogenous MC1-R). In some instances, HEK-293 cells that express recombinant hMC1-R were employed. In the examples that follow, all MC3-R, MC4-R and MC5-R values are for human recombinant receptors. […] Membrane homogenates were incubated with 0.2 nM (for hMC4-R) 0.4 nM (for MC3-R and MC5-R) or 0.1 nM (for mouse B16 MC1-R or hMC1-R) [I¹²⁵]-NDP-α-MSH (Perkin Elmer) and increasing concentrations of test peptides of the present invention in buffer containing 25 mM HEPES buffer (pH 7.5) with 100 mM NaCl, 2 mM CaCl₂, 2 mM MgCl₂, 0.3 mM 1,10-phenanthroline, and 0.2% bovine serum albumin. After incubation for 60 minutes at 37° C., the assay mixture was filtered and the membranes washed three times with ice-cold buffer. Filters were dried and counted in a gamma counter for bound radioactivity. […] Maximal specific binding (100%) was defined as the difference in radioactivity (cpm) bound to cell membranes in the absence and presence of 1 μM NDP-α-MSH. […] Each assay was conducted in triplicate and the actual mean values are described, with results less than 0% reported as 0%. Ki values for test peptides of the present invention were determined using Graph-Pad Prism® curve-fitting software.
row,Ki [nM],Binder
1,133,B2
2,295,"Ac-R[Aad]N[dF]RW[Dab]-NH2 (lactam 2-7, also called peptide No. 160) [Ac-Arg-cyclo(hGlu-Asn-D-Phe-Arg-Trp-Dab)-NH2]"
3,688,"Ac-R[Orn]N[dF]RWE-NH2 (lactam 2-7, also called peptide No. 154) [Ac-Arg-cyclo(Orn-Asn-D-Phe-Arg-Trp-Glu)-NH2]"
4,840,"Ac-[dR][Orn]N[dF]RWE-NH2 (lactam 2-7, also called peptide No. 156) [Ac-D-Arg-cyclo(Orn-Asn-D-Phe-Arg-Trp-Glu)-NH2]"
5,255,B3
6,240,Ac-RKN[dF]RWD-NH2 (lactam 2-7) [Ac-Arg-cyclo(Lys-Asn-D-Phe-Arg-Trp-Asp)-NH2]
7,155,"Ac-REN[dF]RW[Orn]-NH2 (lactam 2-7, also called peptide No. 161) [Ac-Arg-cyclo(Glu-Asn-D-Phe-Arg-Trp-Orn)-NH2]"

# Molecular target: T1, human recombinant melanocortin-4 …
# Assay: competitive inhibition of labelled NDP-α-MSH, hMC4-R membranes
row,Ki [nM],Binder
1,4,B2
2,8,"Ac-R[Aad]N[dF]RW[Dab]-NH2 (lactam 2-7, also called peptide No. 160) [Ac-Arg-cyclo(hGlu-Asn-D-Phe-Arg-Trp-Dab)-NH2]"
3,5,B3
4,5,Ac-RKN[dF]RWD-NH2 (lactam 2-7) [Ac-Arg-cyclo(Lys-Asn-D-Phe-Arg-Trp-Asp)-NH2]
5,6,"Ac-REN[dF]RW[Orn]-NH2 (lactam 2-7, also called peptide No. 161) [Ac-Arg-cyclo(Glu-Asn-D-Phe-Arg-Trp-Orn)-NH2]"
6,45,"Ac-[dR]DQ[dF]RWK-NH2 (lactam 2-7, also called peptide No. 71) [Ac-D-Arg-cyclo(Asp-Gln-D-Phe-Arg-Trp-Lys)-NH2]"

# Molecular target: T1, human recombinant melanocortin-4 …
# Assay: competitive inhibition of [I125]-NDP-α-MSH, hMC4-R HEK-293 membranes
# Protocol: as §2
# 9.1 Peptides of the following structures were synthesized by the general methods described above, and averaged MC4-R Ki values for peptides were determined as indicated. […] Ki values marked “ND” were not determined.
row,Ki [nM],Binder
1,4,B2
2,8,"Ac-R[Aad]N[dF]RW[Dab]-NH2 (lactam 2-7, also called peptide No. 160) [Ac-Arg-cyclo(hGlu-Asn-D-Phe-Arg-Trp-Dab)-NH2]"
3,5,B3
4,5,Ac-RKN[dF]RWD-NH2 (lactam 2-7) [Ac-Arg-cyclo(Lys-Asn-D-Phe-Arg-Trp-Asp)-NH2]
5,6,"Ac-REN[dF]RW[Orn]-NH2 (lactam 2-7, also called peptide No. 161) [Ac-Arg-cyclo(Glu-Asn-D-Phe-Arg-Trp-Orn)-NH2]"
6,45,"Ac-[dR]DQ[dF]RWK-NH2 (lactam 2-7, also called peptide No. 71) [Ac-D-Arg-cyclo(Asp-Gln-D-Phe-Arg-Trp-Lys)-NH2]"
